Reference: patent publication US20200222444

Target: Flag-Mettl8 (Flag-tagged human Mettl8, wild type) (UniProt Q9H825)
Sequence (Q9H825 other isoform, or with tags, fused parts or gaps): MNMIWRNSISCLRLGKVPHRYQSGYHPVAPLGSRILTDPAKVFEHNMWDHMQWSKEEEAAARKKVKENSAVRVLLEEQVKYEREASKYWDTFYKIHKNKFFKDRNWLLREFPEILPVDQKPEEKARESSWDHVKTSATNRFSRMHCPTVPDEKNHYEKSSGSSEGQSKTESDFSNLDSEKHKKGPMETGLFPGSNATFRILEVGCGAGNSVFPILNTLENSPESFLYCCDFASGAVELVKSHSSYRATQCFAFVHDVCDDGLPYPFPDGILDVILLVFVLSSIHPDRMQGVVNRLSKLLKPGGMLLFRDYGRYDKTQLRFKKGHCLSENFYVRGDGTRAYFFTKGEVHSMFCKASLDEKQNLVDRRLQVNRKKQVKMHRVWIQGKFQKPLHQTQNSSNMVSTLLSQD

Q: Which “pS/TQ phosphorylation after 10 Gy irradiation (Flag IP, immunoblot)” value does the source give for Endogenous ATM here?
A: pS/TQ phosphorylation was detected on wild type Mettl8 upon irradiation
